For two molecules, IC50 results are on record in PMC8659110 (2021).

The experiment concerns the target NRP-1 recombinant chimeric protein ( (recombinant human/rat NRP-1 …, UniProt O14786 22-856)). Put plainly: ELISA; competition with biotinylated VEGF-165. (ELISA stands for enzyme-linked immunosorbent assay.)

Primed or numbered codes have the meaning given here. Where no end group is shown, it is not given here. Cy5 = Cy5 fluorophore (fluorescent dye); NODAGA′ = chelator

Chain of NRP-1 recombinant chimeric protein ( (O14786 22-856, change not shown): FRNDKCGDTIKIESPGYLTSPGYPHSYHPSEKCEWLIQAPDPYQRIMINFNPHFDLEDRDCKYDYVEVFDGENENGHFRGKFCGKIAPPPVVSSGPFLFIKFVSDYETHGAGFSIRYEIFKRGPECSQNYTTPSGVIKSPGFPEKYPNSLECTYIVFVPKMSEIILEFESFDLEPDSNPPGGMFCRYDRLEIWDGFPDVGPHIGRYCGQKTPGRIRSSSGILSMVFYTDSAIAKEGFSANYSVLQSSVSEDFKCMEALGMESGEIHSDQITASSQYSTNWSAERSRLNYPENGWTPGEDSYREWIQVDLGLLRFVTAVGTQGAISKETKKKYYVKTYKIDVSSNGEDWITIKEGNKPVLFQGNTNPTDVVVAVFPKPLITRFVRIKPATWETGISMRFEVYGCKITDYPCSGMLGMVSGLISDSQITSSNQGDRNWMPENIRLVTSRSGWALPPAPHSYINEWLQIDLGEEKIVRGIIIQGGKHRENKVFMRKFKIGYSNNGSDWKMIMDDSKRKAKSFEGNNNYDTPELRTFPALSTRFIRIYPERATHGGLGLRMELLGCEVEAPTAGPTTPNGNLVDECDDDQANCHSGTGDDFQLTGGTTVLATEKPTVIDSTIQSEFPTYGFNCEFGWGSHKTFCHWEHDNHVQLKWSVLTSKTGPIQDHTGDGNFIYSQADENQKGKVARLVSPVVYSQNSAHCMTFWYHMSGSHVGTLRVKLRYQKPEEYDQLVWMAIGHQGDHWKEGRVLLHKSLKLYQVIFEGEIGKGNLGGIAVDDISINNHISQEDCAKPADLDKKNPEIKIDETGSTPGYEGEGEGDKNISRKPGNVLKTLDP

B1: KDKPPR peptide (peptide)
peptide: KDKPPR
As a reminder, the IC50 is the concentration that gives 50% inhibition. As for B1, the half-maximal inhibitory concentration (IC50) was determined as 2000 nM.

B2: ^natGa-NODAGA-K(Cy5)DKPPR (peptide)
peptide: {NODAGA′}-K(Cy5)DKPPR
modifications: also: NODAGA complexed with natGa
Take B2: the IC50 was 100 nM.
